Test results as given in patent publication US20210071162A1 (CENTRE NATIONAL DE LA RECHERCHE SCIENTIFIQUE, published 2021).

Legend:
GLM = target: T1, GLM
T1 chain: GLM

GMDSLAFSGGL = target: T2, GMDSLAFSGGL
T2 chain: GMDSLAFSGGL

Gly-Gly-pNA = target: T3, Gly-Gly-pNA
T3 chain: GG

LGG = target: T4, LGG
T4 chain: LGG

[1] = target: the molecule itself; experiment: self-assembly of PhTET4 subunits; size-exclusion chromatography and negative stain electron microscopy
Protocol: After the size exclusion chromatography step, 4 μl of PhTET4 at 0.05 mg/ml were deposited onto carbon-coated 400-mesh copper grids. The samples were stained using uranyl acetate 2% and air-dried. Images were taken under low-dose conditions in a T12FEI electron microscope working at 120 kV and with a nominal magnification of 40,000 using an Orius SC1000 CCD camera.
The three-dimensional structure of PhTET4 was assessed by producing the recombinant PhTET4 in E. coll. The cellular extract was clarified by heat shock precipitation and the recombinant protein was purified by ion-exchange and size-exclusion chromatographies. […] The dimensions and the shape of PhTET4 are analogous to the three P. horikoshii tetrahedral TET edifices: PhTET1, PhTET2 and PhTET3.

B1: PhTET4 (enzyme)
chain: MERIVKILREILEIPSPTGYTKEVMSYLEKFLKENEVNFYYTNKGALIAGNHPKPELVVIAHVDTLGAMVKEILPDGHLAFSRIGGLVLPTFEGEYCTIITRKGKKFRGTLLLRNPSAHVNREVGKKERKEENMYIRLDELVEKREDTEKLGIRPGDFIAFDPKFEYVNGFVKSHFLDDKASVAAILDLIIDMKDELEKYPVAFFFSPYEEVGHGGSAGYPPTTKELLVVDMGVVGEGVSGKETAVSIAAKDTTGPYDYDMTNRLIELAEENNIPYVVDVFPYYGSDGSAALRAGWDFRVALIGPGVHASHGMERTHVKGLLATKELIRAYIKWKG
notes: also called TET protein; protein encoded by PH0737 gene
- cleavage of the N-terminal residue of the peptide (reverse phase HPLC, N-terminal sequencing of products) (GLM): PhTET4 does not exert amidolytic activity beyond the N-ter glycine in a peptide context
- cleavage of the N-terminal residue of the peptide (reverse phase HPLC, N-terminal sequencing of products) (GMDSLAFSGGL): PhTET4 does not exert amidolytic activity beyond the N-ter glycine in a peptide context
- enzymatic activity against the chromogenic peptide (released pNA), relative to Gly-pNA (Gly-Gly-pNA): PhTET4 displayed significant activity against this substrate, corresponding to 10% of the total activity exhibited in presence of monoacyl compound Gly-pNA
- cleavage of the N-terminal residue of the peptide (reverse phase HPLC, N-terminal sequencing of products) (LGG): no enzymatic activity was detected against peptide that do not start by glycine residue even if a glycine residue is present at P1′ position as demonstrated with the LGG tripeptide
- binding result [1]: binds
